The source of these data is patent publication US10058586B2, “Use of human small leucine zipper protein in adipocyte differentiation procedure” (Korea University Research and Business Foundation, priority 2013, dated 2018).

The test system of one assay is HDAC3. In words: HDAC3 ubiquitination (Ha-UB, GST pull-down) in 293T cells. As to conditions: ligand treated (10 nM RZD, 24 hours). Type of assay: cell-based. The protocol: Therefore, in order to understand a regulation mechanism of sLZIP in the PPARγ2 transcriptional activity by binding to the FABP4 promoter region, an effect of sLZIP on the interaction between PPARγ2 and HDAC3 was examined. For this purpose, 293T cells were transfected with GST-HDAC3, Myc-PPARγ2 and Flag-sLZIP, and were treated or not treated with 10 nM of RZD for 24 hours. Cell lysates were subjected to GST pull-down analysis using a glutathione 4B bead, and a protein complex was analyzed in SDS-PAGE, and then immunoblotted with anti-GST, anti-Myc and anti-Flag antibodies (FIG. 6A). GST-HDAC3, GST-PPARγ2, Myc-PPARγ2, Flag-sLZIP and Ha-UB were expressed in the 293T cells, and the cells were treated with 10 nM of RZD for 24 hours. Cell lysates were subjected to GST pull-down analysis (FIG. 6B). GST-PPARγ2 and Flag-sLZIP were expressed in the 293T cells and treated with 10 nM of RZD for 24 hours. Cell lysates were subjected to GST pull-down analysis, and a protein complex was analyzed in SDS-PAGE, and then immunoblotted with anti-PGC1α, anti-GST and anti-Flag antibodies (FIG. 6C).

For assay [1], the system named is CREB element in the FABP4 enhancer region. The experiment in a line: Electrophoretic mobility shift assay (EMSA) of His-sLZIP with FABP4 enhancer probes. Type of assay: binding. The protocol:
T4 polynucleotide kinase (Promega, Madison, Wis.) was used to label 5′-terminal of oligonucleotides with [γ-^32P]ATP (Perkin Elmer, Waltham, Mass.). According to instructions of the manufacturer, unbound nucleotides were removed through tubes in a Bio-Gel P-6 spin column (Bio-Rad, Inc., Hercules, Calif.). His-sLZIP proteins were pre-incubated for 20 minutes at room temperature in a 5× binding buffer [10×GRAB, 20 mM of DTT, poly(deoxyinosinic-deoxycytidylic), Sigma, St. Louis] and radiolabeled probes. Reaction mixtures were loaded in wells of 4% nondenaturing polyacrylamide gels, and subjected to electrophoresis for 45 minutes at 180 V in a 0.5×TBE buffer. For competition experiments, a binding reaction was incubated for 30 minutes with 100-fold molar excess of unlabeled CREB binding oligonucleotides before radiolabeled oligonucleotides were added. For supershift analysis, anti-His antibodies were added to a reaction mixture on ice for additional 30 minutes.
A DNA binding ability of sLZIP with various elements in the FABP4 enhancer region was examined. For this purpose, recombinant His-sLZIP fusion proteins (3 μg) were incubated with γ-^32P-labeled oligonucleotide probes containing expected CREB binding elements (FIG. 7B). The γ-^32P-labeled oligonucleotide probes were incubated while an amount of purified His-sLZIPs was increased. For competition analysis, unlabeled CREB oligonucleotide probes of 100-fold excess were used and His antibodies were added to a reaction mixture on ice for additional […] (FIG. 7C). His-sLZIP proteins were subjected to EMSA using wild type and CREB mutant (TGATGTCA→TGGGGTCA) probes (FIG. 7D). 293T cells were temporarily transfected with PPARγ2 (0.5 μg), β-galactosidase (0.1 μg), FABP4 enhancer-luciferase reporter genes (0.2 μg) and sLZIP mutants at different contents (0.1 to 0.5 μg). After the transfection, the cells were stimulated with 10 nM of RZD (FIG. 7F). A luciferase activity was normalized to a β-galactosidase activity and represented as a relative activity (fold change). All experiments were repeated three times, and bars in the graph represent mean±standard deviation. ChIP analysis was performed using HA-sLZIP-specific antibodies and then PCR was performed. Input chromatins or immunoprecipitated chromatins were subjected to PCR and used as a control group for variables.

B1: sLZIP: human small leucine-zipper protein, isoform of LZIP, 354 amino acids, no transmembrane domain; GenBank FJ263669, SEQ ID NO: 1 (protein, listed as Homo sapiens)
chain: MELELDAGDQDLLAFLLEESGDLGTAPDEAVRAPLDWALPLSEVPSDWEVDDLLCSLLSPPASLNILSSSNPCLVHHDHTYSLPRETVSMDLESESCRKEGTQMTPQHMEELAEQEIARLVLTDEEKSLLEKEGLILPETLPLTKTEEQILKRVRRKIRNKRSAQESRRKKKVYVGGLESRVLKYTAQNMELQNKVQLLEEQNLSLLDQLRKLQAMVIEISNKTSSSSMYSSDTRGSLPAEHGVLSRQLRALPSEDPYQLELPALQSEVPKDSTHQWLDGSDCVLQAPGNTSCLLHYMPQAPSAEPPLEWPFPDLFSEPLCRGPILPLQANLTRKGGWLPTGSPSVILQDRYSG
Take B1: in the assay with HDAC3, the HDAC3 ubiquitination entry is recorded as “inhibited HDAC3 ubiquitination”. For the same molecule, the “DNA binding to CREB element (EMSA, cold competition)” value in assay [1] (100-fold excess unlabeled CREB probes) is listed as “not bound to the CREB element when there were competitors”. Further, in assay [1] (CREB mutant TGATGTCA→TGGGGTCA), the “DNA binding to CREB mutant probes (EMSA)” value is “not bound to CREB mutant probes”. In addition, in assay [1] (His antibodies added), the “supershift (EMSA)” value was “supershifted”. Moreover, the “DNA binding to elements in the FABP4 enhancer region (EMSA)” value in assay [1] (His-sLZIP 3 μg, labeled probes) is “directly bound to a CREB region”. In assay [1] (increasing amount of purified His-sLZIP), the “DNA binding ability with CREB element (EMSA)” value was “increased in a concentration-dependent manner”.
